According to patent US20150037339A1 (Regeneron, published 2015):

T1: Activin A (human, UniProt P08476 311-426)
T1 construct: Homodimer of two βA subunits; bought from R&D Systems (#338-AC); also called inhibin-βA dimer; human Activin A
T1 sequence: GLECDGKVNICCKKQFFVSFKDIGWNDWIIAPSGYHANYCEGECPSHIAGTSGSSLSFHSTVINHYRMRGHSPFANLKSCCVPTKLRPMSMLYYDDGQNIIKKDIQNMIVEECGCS

T2: Activin B (human, UniProt P09529 293-407)
T2 construct: Homodimer of two βB subunits; R&D Systems #659-AB
T2 chain: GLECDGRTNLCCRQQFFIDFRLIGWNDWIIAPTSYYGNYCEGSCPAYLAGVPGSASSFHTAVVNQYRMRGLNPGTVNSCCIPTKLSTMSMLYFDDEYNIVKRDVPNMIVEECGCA


Columns and labels:
[1] = target: T1, Activin A; experiment: SPR, captured mAb, 25C
Procedure, shortened: (§1)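 Reported half-lives follow ln2/(60*kd) in minutes, with KD taken as kd/ka. Both rest on fits to binding data from 240 s of association and 600 s of buffer dissociation.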

[2] = target: T2, Activin B; experiment: SPR, captured mAb, 25C
Procedure, shortened: as §1

[3] = target: T1, Activin A; experiment: SPR, captured mAb, 37C
Procedure, shortened: as §1

[4] = target: T2, Activin B; experiment: SPR, captured mAb, 37C
Procedure, shortened: as §1

[5] = target: T1, Activin A; experiment: SPR, captured mAb, 25C; no dissociation observed, kd fixed
Procedure: (§2) Antibody-antigen association was monitored for 240 seconds while dissociation in buffer was monitored for 600 seconds. Kinetic association and dissociation rate constants were determined by processing and fitting the data using Scrubber software version 2.0c. Binding equilibrium dissociation constants (KD) and dissociative half-lives (t_{1/2}) were then calculated from the kinetic rate constants as: KD (M)=kd/kₐ and t_{1/2} (min)=[ln 2/(60*kd)]. (NB=no binding observed under the conditions used; NT=not tested).

[6] = target: T1, Activin A; experiment: SPR, captured mAb, 37C; no dissociation observed, kd fixed
Procedure: as §2

[7] = target: T1, Activin A; experiment: Octet cross-competition; binder on anti-hFc tip; 50 nM hActivin A pre-bound with 1 uM H4H10423P (col 4); white box
Procedure: (§3) No. 8,309,082) and Control 3 (MAB3381, available from R&D Systems, Inc., Minneapolis, Minn.) were also included in the assays. All assays were performed at 25° C. with a microtiter plate shaking rate of 1000 rpm in Octet HBST buffer (0.01 M HEPES pH7.4, 0.15M NaCl, 3 mM EDTA, 0.05% v/v Surfactant P20, 0.1 mg/mL BSA) according to manufacturer's instructions (ForteBio Corp., Menlo Park, Calif.). […] Any remaining anti-hFc binding sites on the tips were blocked by incubating the tips in a 50 ug/mL solution of irrelevant antibody for 5 minutes.

[8] = target: T1, Activin A; experiment: Octet cross-competition; binder on anti-hFc tip; 50 nM hActivin A pre-bound with 1 uM H4H10429P (col 6); black box
Procedure: as §3

[9] = target: T1, Activin A; experiment: Octet cross-competition; binder on anti-hFc tip; 50 nM hActivin A pre-bound with 1 uM H4H10430P (col 5); black box
Procedure: as §3

[10] = target: T1, Activin A; experiment: Octet cross-competition; binder on anti-hFc tip; 50 nM hActivin A pre-bound with 1 uM Control 1 (col 10); black box
Procedure: as §3

[11] = target: T1, Activin A; experiment: Octet cross-competition; binder on anti-hFc tip; 50 nM hActivin A pre-bound with 1 uM Control 3 (col 11); black box
Procedure: as §3

[12] = target: T1, Activin A; experiment: Octet cross-competition; binder on anti-hFc tip; 50 nM hActivin A pre-bound with 1 uM H4H10436P2 (col 8); black box
Procedure: as §3

[13] = target: T1, Activin A; experiment: Octet cross-competition; binder on anti-hFc tip; 50 nM hActivin A pre-bound with 1 uM H4H10440P2 (col 9); black box
Procedure: as §3

[14] = target: T1, Activin A; experiment: Octet cross-competition; binder on anti-hFc tip; 50 nM hActivin A pre-bound with 1 uM H4H10442P2 (col 3); white box
Procedure: as §3

[15] = target: T1, Activin A; experiment: Octet cross-competition; binder on anti-hFc tip; 50 nM hActivin A pre-bound with 1 uM H4H10446P2 (col 1); white box
Procedure: as §3

[16] = target: T1, Activin A; experiment: Octet cross-competition; binder on anti-hFc tip; 50 nM hActivin A pre-bound with 1 uM H4H10468P2 (col 2); white box
Procedure: as §3

[17] = target: T1, Activin A; experiment: Octet cross-competition; binder on anti-hFc tip; 50 nM hActivin A mixed with 1 uM Isotype control 12 (-) (col 12); dark grey box
Procedure: as §3

[18] = target: T1, Activin A; experiment: Octet cross-competition; binder on anti-hFc tip; 50 nM hActivin A mixed with 1 uM Isotype control 13 (-) (col 13); dark grey box
Procedure: as §3

[19] = target: T1, Activin A; experiment: Octet cross-competition; binder on anti-hFc tip; 50 nM hActivin A pre-bound with 1 uM H4H10432P2 (col 7); black box
Procedure: as §3

Binder | Activin A-20 nM (RU) [1] [RU] | Kd [1] [nM] | kon [1] [M⁻¹ s⁻¹] | t1/2 [1] [min] | 50 nM Ag Bound (RU) [2] [RU] | Activin A-20 nM (RU) [3] [RU] | Kd [3] [nM] | kon [3] [M⁻¹ s⁻¹] | t1/2 [3] [min] | 50 nM Ag Bound (RU) [4] [RU] | koff [6] [s⁻¹] | binding response [7] | binding response [9] | binding response [10] | binding response [11] | binding response [13] | binding response [14] | binding response [15] | binding response [16] | binding response [17] | other results
H4H10432P2 (antibody, human IgG4, V domains shown) VH: EVQLVESGGGLVQPGRSLTLSCAVSGFTFDDHAMHWVRQAPGKGLEWVSGISWNSVSIGYADSVKGRFTISRDNAKTSLYLQMNSLRVDDTALYYCVQDLNDILTGYPLFDFWGQGTLVTVSS VL: not shown | 20.7 | ≤ 0.00318 | 1.57e+07 | ≥ 231 | 5.1 | 25.1 | ≤ 0.00218 | 2.3e+07 | ≥ 231 | 5.1 | ≤ 5e-05 | 1.32 | 0.28 | 0.15 | -0.05 | 0.27 | 1.63 | 1.36 | 1.58 | 0.3 | binding result [2]: no binding (tested: 50 nM); koff [5]: ≤ 5e-05 s⁻¹; binding response [8]: 0.32; binding response [12]: 0.29; binding response [18]: 0.11
H4H10436P2 (antibody, human IgG4, V domains shown) VH: QVQLVESGGGVVQPGRSLRLTCVASGFTVSSYGMHWVRQAPGKGLEWVAVMFYDESKKYYADSVKGRFTISRDNSKNTLYLQMNSLRVEDTAVYYCARDEQLDFEYWGQGTLVTVSS VL: not shown | 23.2 | 0.019 | 8.85e+06 | 68.7 | 32.8 | 29.4 | ≤ 0.00335 | 1.49e+07 | ≥ 231 | 38.1 | ≤ 5e-05 | 1.41 | 0.28 | 0.16 | -0.04 | 0.27 | 1.39 | 1.22 | 1.32 | 0.28 | koff [1]: 0.000168 s⁻¹; Kd [2]: 0.0554 nM; koff [2]: 0.000528 s⁻¹; kon [2]: 9.52e+06 M⁻¹ s⁻¹; t1/2 [2]: 21.9 min; Kd [4]: 0.139 nM; koff [4]: 0.00136 s⁻¹; kon [4]: 9.78e+06 M⁻¹ s⁻¹; t1/2 [4]: 8.5 min; binding response [8]: 0.36; binding response [19]: 0.23; binding response [18]: 0.14
H4H10429P (antibody, human IgG4, V domains shown) VH: QVQLVESGGGVVQPGRSLRLSCVASGFTVSSYGIHWVRQAPGKGLEWVSVIWYDGRNKDYADSVKGRFTISRDNSKNTVYLEMKGLRAEDTALYYCARDKTGDFDSWGQGTLVTVSS VL: DIQMTQSPSSLSASVGDRVTITCRASQNINSFLSWYQQKPGKAPKFLIYDASSIQSGAPSRFSGSGSGTDFTLTISSLQPEDFATYYCQQSYSSPFTFGQGTKLEIK | 24.9 | 0.00817 | 7.82e+06 | 181 | 26.4 | 31.4 | ≤ 0.00375 | 1.33e+07 | ≥ 231 | 25.3 | ≤ 5e-05 | 1.39 | 0.65 | 0.16 | -0.01 | 0.29 | 1.4 | 1.24 | 1.37 | 0.39 | koff [1]: 6.39e-05 s⁻¹; Kd [2]: 3.75 nM; koff [2]: 0.0131 s⁻¹; kon [2]: 3.49e+06 M⁻¹ s⁻¹; t1/2 [2]: 0.9 min; Kd [4]: 9.98 nM; koff [4]: 0.0343 s⁻¹; kon [4]: 3.43e+06 M⁻¹ s⁻¹; t1/2 [4]: 0.3 min; binding response [19]: 0.26; binding response [12]: 0.34; binding response [18]: 0.24
